In patent publication US20250084142A1 (INTARCIA THERAPEUTICS, published 2025):
Starred links: 1 amine or outer side, 2 acyl side, 3 side chain; linkers in the order of their positions; H or OH if unused. Non-standard residues stand in square brackets, D forms with d. Groups on a side chain read outwards from the residue. No end group written: not given here. *: point of attachment. C20 diacid = O=C(O)CCCCCCCCCCCCCCCCCCC(=O)*; γGlu = O=C(O)[C@H](CCC(=O)[*:2])N[*:1]; NMeY = CN[C@@H](Cc1ccc(O)cc1)C(=O)O

T1: NPY2R
T1 sequence (P49146 1-381, species assumed, looked up): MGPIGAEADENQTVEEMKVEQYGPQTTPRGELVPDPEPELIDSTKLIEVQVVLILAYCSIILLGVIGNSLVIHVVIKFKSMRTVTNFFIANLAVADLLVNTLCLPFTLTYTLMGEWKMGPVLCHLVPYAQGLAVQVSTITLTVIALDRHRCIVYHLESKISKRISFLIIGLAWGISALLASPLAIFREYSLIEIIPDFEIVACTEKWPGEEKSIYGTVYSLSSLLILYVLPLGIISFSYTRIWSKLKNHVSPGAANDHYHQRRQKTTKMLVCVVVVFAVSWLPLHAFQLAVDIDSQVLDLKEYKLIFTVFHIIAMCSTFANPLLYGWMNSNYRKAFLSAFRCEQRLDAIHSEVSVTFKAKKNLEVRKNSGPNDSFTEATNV

T2: NPY5R
T2 sequence (Q15761 1-445, species assumed, looked up): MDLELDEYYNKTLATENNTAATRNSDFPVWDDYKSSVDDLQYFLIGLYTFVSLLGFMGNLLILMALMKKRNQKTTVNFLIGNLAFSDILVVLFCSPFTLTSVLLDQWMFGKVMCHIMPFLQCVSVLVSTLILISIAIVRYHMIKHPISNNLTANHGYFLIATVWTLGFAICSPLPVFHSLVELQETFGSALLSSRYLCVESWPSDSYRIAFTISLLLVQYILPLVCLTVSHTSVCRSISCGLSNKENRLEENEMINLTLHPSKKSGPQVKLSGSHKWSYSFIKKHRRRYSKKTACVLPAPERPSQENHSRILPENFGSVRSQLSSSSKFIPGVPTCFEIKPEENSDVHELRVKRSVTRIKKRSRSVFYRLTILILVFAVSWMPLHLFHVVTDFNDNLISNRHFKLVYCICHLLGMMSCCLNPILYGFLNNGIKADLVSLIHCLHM


Tests used:
[1] = target: T1, NPY2R; experiment: cell-based or functional assay
[2] = target: T2, NPY5R; experiment: cell-based or functional assay

Row | Binder | NPY2R pEC50 [1] | NPY5R pEC50 [2]
1 | PKPEAPGKDASPK([γGlu-γGlu-C20 diacid])EWNRYYADARHYLNWLTRQR[NMeY]-NH2 (N-terminus assumed; SMILES CC(C)C[C@H](NC(=O)[C@H](Cc1ccc(O)cc1)NC(=O)[C@H](Cc1c[nH]cn1)NC(=O)[C@H](CCCNC(=N)N)NC(=O)[C@H](C)NC(=O)[C@H](CC(=O)O)NC(=O)[C@H](C)NC(=O)[C@H](Cc1ccc(O)cc1)NC(=O)[C@H](Cc1ccc(O)cc1)NC(=O)[C@H](CCCNC(=N)N)NC(=O)[C@H](CC(N)=O)NC(=O)[C@H](Cc1c[nH]c2ccccc12)NC(=O)[C@H](CCC(=O)O)NC(=O)[C@H](CCCCNC(=O)CC[C@H](NC(=O)CC[C@H](NC(=O)CCCCCCCCCCCCCCCCCCC(=O)O)C(=O)O)C(=O)O)NC(=O)[C@@H]1CCCN1C(=O)[C@H](CO)NC(=O)[C@H](C)NC(=O)[C@H](CC(=O)O)NC(=O)[C@H](CCCCN)NC(=O)CNC(=O)[C@@H]1CCCN1C(=O)[C@H](C)NC(=O)[C@H](CCC(=O)O)NC(=O)[C@@H]1CCCN1C(=O)[C@H](CCCCN)NC(=O)[C@@H]1CCCN1)C(=O)N[C@@H](CC(N)=O)C(=O)N[C@@H](Cc1c[nH]c2ccccc12)C(=O)N[C@@H](CC(C)C)C(=O)N[C@H](C(=O)N[C@@H](CCCNC(=N)N)C(=O)N[C@@H](CCC(N)=O)C(=O)N[C@@H](CCCNC(=N)N)C(=O)N(C)[C@@H](Cc1ccc(O)cc1)C(N)=O)[C@@H](C)O) [Compound A8] | 9.6 -Log(EC50, M) | 7.1 -Log(EC50, M)
2 | PKPK([γGlu-γGlu-C20 diacid])APGKDASPEEWNRYYADARHYLNWLTRQR[NMeY]-NH2 (N-terminus assumed; SMILES CC(C)C[C@H](NC(=O)[C@H](Cc1ccc(O)cc1)NC(=O)[C@H](Cc1c[nH]cn1)NC(=O)[C@H](CCCNC(=N)N)NC(=O)[C@H](C)NC(=O)[C@H](CC(=O)O)NC(=O)[C@H](C)NC(=O)[C@H](Cc1ccc(O)cc1)NC(=O)[C@H](Cc1ccc(O)cc1)NC(=O)[C@H](CCCNC(=N)N)NC(=O)[C@H](CC(N)=O)NC(=O)[C@H](Cc1c[nH]c2ccccc12)NC(=O)[C@H](CCC(=O)O)NC(=O)[C@H](CCC(=O)O)NC(=O)[C@@H]1CCCN1C(=O)[C@H](CO)NC(=O)[C@H](C)NC(=O)[C@H](CC(=O)O)NC(=O)[C@H](CCCCN)NC(=O)CNC(=O)[C@@H]1CCCN1C(=O)[C@H](C)NC(=O)[C@H](CCCCNC(=O)CC[C@H](NC(=O)CC[C@H](NC(=O)CCCCCCCCCCCCCCCCCCC(=O)O)C(=O)O)C(=O)O)NC(=O)[C@@H]1CCCN1C(=O)[C@H](CCCCN)NC(=O)[C@@H]1CCCN1)C(=O)N[C@@H](CC(N)=O)C(=O)N[C@@H](Cc1c[nH]c2ccccc12)C(=O)N[C@@H](CC(C)C)C(=O)N[C@H](C(=O)N[C@@H](CCCNC(=N)N)C(=O)N[C@@H](CCC(N)=O)C(=O)N[C@@H](CCCNC(=N)N)C(=O)N(C)[C@@H](Cc1ccc(O)cc1)C(N)=O)[C@@H](C)O) [Compound A6] | 8.9 -Log(EC50, M) | 7.7 -Log(EC50, M)
3 | PKPEAPK([γGlu-γGlu-C20 diacid])KDASPEEWNRYYADARHYLNWLTRQR[NMeY]-NH2 (N-terminus assumed; SMILES CC(C)C[C@H](NC(=O)[C@H](Cc1ccc(O)cc1)NC(=O)[C@H](Cc1c[nH]cn1)NC(=O)[C@H](CCCNC(=N)N)NC(=O)[C@H](C)NC(=O)[C@H](CC(=O)O)NC(=O)[C@H](C)NC(=O)[C@H](Cc1ccc(O)cc1)NC(=O)[C@H](Cc1ccc(O)cc1)NC(=O)[C@H](CCCNC(=N)N)NC(=O)[C@H](CC(N)=O)NC(=O)[C@H](Cc1c[nH]c2ccccc12)NC(=O)[C@H](CCC(=O)O)NC(=O)[C@H](CCC(=O)O)NC(=O)[C@@H]1CCCN1C(=O)[C@H](CO)NC(=O)[C@H](C)NC(=O)[C@H](CC(=O)O)NC(=O)[C@H](CCCCN)NC(=O)[C@H](CCCCNC(=O)CC[C@H](NC(=O)CC[C@H](NC(=O)CCCCCCCCCCCCCCCCCCC(=O)O)C(=O)O)C(=O)O)NC(=O)[C@@H]1CCCN1C(=O)[C@H](C)NC(=O)[C@H](CCC(=O)O)NC(=O)[C@@H]1CCCN1C(=O)[C@H](CCCCN)NC(=O)[C@@H]1CCCN1)C(=O)N[C@@H](CC(N)=O)C(=O)N[C@@H](Cc1c[nH]c2ccccc12)C(=O)N[C@@H](CC(C)C)C(=O)N[C@H](C(=O)N[C@@H](CCCNC(=N)N)C(=O)N[C@@H](CCC(N)=O)C(=O)N[C@@H](CCCNC(=N)N)C(=O)N(C)[C@@H](Cc1ccc(O)cc1)C(N)=O)[C@@H](C)O) [Compound A7] | 9.7 -Log(EC50, M) | 6 -Log(EC50, M)

Continued, values first:

Row | NPY2R pEC50 [1] | NPY5R pEC50 [2] | Binder
4 | 10.5 -Log(EC50, M) | 8.7 -Log(EC50, M) | PKPEKPGK([γGlu-γGlu-C20 diacid])DASPEEWNRYYKDLRHYLNWLTRQRF-NH2 (N-terminus assumed; SMILES CC(C)C[C@H](NC(=O)[C@H](CC(=O)O)NC(=O)[C@H](CCCCN)NC(=O)[C@H](Cc1ccc(O)cc1)NC(=O)[C@H](Cc1ccc(O)cc1)NC(=O)[C@H](CCCNC(=N)N)NC(=O)[C@H](CC(N)=O)NC(=O)[C@H](Cc1c[nH]c2ccccc12)NC(=O)[C@H](CCC(=O)O)NC(=O)[C@H](CCC(=O)O)NC(=O)[C@@H]1CCCN1C(=O)[C@H](CO)NC(=O)[C@H](C)NC(=O)[C@H](CC(=O)O)NC(=O)[C@H](CCCCNC(=O)CC[C@H](NC(=O)CC[C@H](NC(=O)CCCCCCCCCCCCCCCCCCC(=O)O)C(=O)O)C(=O)O)NC(=O)CNC(=O)[C@@H]1CCCN1C(=O)[C@H](CCCCN)NC(=O)[C@H](CCC(=O)O)NC(=O)[C@@H]1CCCN1C(=O)[C@H](CCCCN)NC(=O)[C@@H]1CCCN1)C(=O)N[C@@H](CCCNC(=N)N)C(=O)N[C@@H](Cc1c[nH]cn1)C(=O)N[C@@H](Cc1ccc(O)cc1)C(=O)N[C@@H](CC(C)C)C(=O)N[C@@H](CC(N)=O)C(=O)N[C@@H](Cc1c[nH]c2ccccc12)C(=O)N[C@@H](CC(C)C)C(=O)N[C@H](C(=O)N[C@@H](CCCNC(=N)N)C(=O)N[C@@H](CCC(N)=O)C(=O)N[C@@H](CCCNC(=N)N)C(=O)N[C@@H](Cc1ccccc1)C(N)=O)[C@@H](C)O) [Compound A19]
5 | 9.6 -Log(EC50, M) | 6 -Log(EC50, M) | PKPEAPGKDASPEEWK([γGlu-γGlu-C20 diacid])RYYADARHYLNWLTRQR[NMeY]-NH2 (N-terminus assumed; SMILES CC(C)C[C@H](NC(=O)[C@H](Cc1ccc(O)cc1)NC(=O)[C@H](Cc1c[nH]cn1)NC(=O)[C@H](CCCNC(=N)N)NC(=O)[C@H](C)NC(=O)[C@H](CC(=O)O)NC(=O)[C@H](C)NC(=O)[C@H](Cc1ccc(O)cc1)NC(=O)[C@H](Cc1ccc(O)cc1)NC(=O)[C@H](CCCNC(=N)N)NC(=O)[C@H](CCCCNC(=O)CC[C@H](NC(=O)CC[C@H](NC(=O)CCCCCCCCCCCCCCCCCCC(=O)O)C(=O)O)C(=O)O)NC(=O)[C@H](Cc1c[nH]c2ccccc12)NC(=O)[C@H](CCC(=O)O)NC(=O)[C@H](CCC(=O)O)NC(=O)[C@@H]1CCCN1C(=O)[C@H](CO)NC(=O)[C@H](C)NC(=O)[C@H](CC(=O)O)NC(=O)[C@H](CCCCN)NC(=O)CNC(=O)[C@@H]1CCCN1C(=O)[C@H](C)NC(=O)[C@H](CCC(=O)O)NC(=O)[C@@H]1CCCN1C(=O)[C@H](CCCCN)NC(=O)[C@@H]1CCCN1)C(=O)N[C@@H](CC(N)=O)C(=O)N[C@@H](Cc1c[nH]c2ccccc12)C(=O)N[C@@H](CC(C)C)C(=O)N[C@H](C(=O)N[C@@H](CCCNC(=N)N)C(=O)N[C@@H](CCC(N)=O)C(=O)N[C@@H](CCCNC(=N)N)C(=O)N(C)[C@@H](Cc1ccc(O)cc1)C(N)=O)[C@@H](C)O) [Compound A9]
6 | 10.2 -Log(EC50, M) | 8.5 -Log(EC50, M) | PKPEK([γGlu-γGlu-C20 diacid])PGEDASPKEWDRYYKDLRHYLNWLTRQRF-NH2 (N-terminus assumed; SMILES CC(C)C[C@H](NC(=O)[C@H](CC(=O)O)NC(=O)[C@H](CCCCN)NC(=O)[C@H](Cc1ccc(O)cc1)NC(=O)[C@H](Cc1ccc(O)cc1)NC(=O)[C@H](CCCNC(=N)N)NC(=O)[C@H](CC(=O)O)NC(=O)[C@H](Cc1c[nH]c2ccccc12)NC(=O)[C@H](CCC(=O)O)NC(=O)[C@H](CCCCN)NC(=O)[C@@H]1CCCN1C(=O)[C@H](CO)NC(=O)[C@H](C)NC(=O)[C@H](CC(=O)O)NC(=O)[C@H](CCC(=O)O)NC(=O)CNC(=O)[C@@H]1CCCN1C(=O)[C@H](CCCCNC(=O)CC[C@H](NC(=O)CC[C@H](NC(=O)CCCCCCCCCCCCCCCCCCC(=O)O)C(=O)O)C(=O)O)NC(=O)[C@H](CCC(=O)O)NC(=O)[C@@H]1CCCN1C(=O)[C@H](CCCCN)NC(=O)[C@@H]1CCCN1)C(=O)N[C@@H](CCCNC(=N)N)C(=O)N[C@@H](Cc1c[nH]cn1)C(=O)N[C@@H](Cc1ccc(O)cc1)C(=O)N[C@@H](CC(C)C)C(=O)N[C@@H](CC(N)=O)C(=O)N[C@@H](Cc1c[nH]c2ccccc12)C(=O)N[C@@H](CC(C)C)C(=O)N[C@H](C(=O)N[C@@H](CCCNC(=N)N)C(=O)N[C@@H](CCC(N)=O)C(=O)N[C@@H](CCCNC(=N)N)C(=O)N[C@@H](Cc1ccccc1)C(N)=O)[C@@H](C)O) [Compound A78]
7 | 10.2 -Log(EC50, M) | 8.7 -Log(EC50, M) | PKPEAPGK([γGlu-γGlu-C20 diacid])DASPEEWNRYYADLRHYLNWLTRQRF-NH2 [Compound A13]
